# From patent US20250152742A1, “COMPOSITIONS AND METHODS FOR NEUROLOGICAL DISEASES” (Trames Bio, Inc., priority 2022, published 2025)
# Numbering of substitutions follows the chain as printed. In names and notes the source's numbering stands.
# B1: CODA534: engineered receptor: L131S, S172D in SEQ ID NO: 33 (protein)
# chain: MRCSPGGVWLALAASLLHVSLQGEFQRKLYKELVKNYNPLERPVANDSQPLTVYFSLSLLQIMDVDEKNQVLTTNIWLQMSWTDHYLQWNVSEYPGVKTVRFPDGQIWKPDILLYNSADERFDATFHTNVSVNSSGHCQYLPPGIFKSSCPMDLKNFPMDVQTCKLKFGSWDYGGWSLDLQMQEADISGYIPNGEWDLVGIPGKRSERFYECCKEPYPDVTFTVTMRRRMGYYLIQMYIPSLLIVILSWISFWINMDAAPARVGLGITTVLTMTTQSSGSRASLPKVSYVKAIDIWMAVCLLFVFSALLEYAAVNFVSRQHKELLRFRRKRRHHKSPMLNLFQEDEAGEGRFNFSAYGMGPACLQAKDGISVKGANNSNTTNPPPAPSKSPEEMRKLFIQRAKKIDKISRIGFPMAFLIFNMFYWIIYKIVRREDVHNQ
# modifications: synthetic sequence of chimeric LGIC
# B2: CODA805: engineered receptor: Y115D, S170T in SEQ ID NO: 33 (protein)
# chain: B1 chain with Y115D, S131L, S170T, D172S
# modifications: synthetic sequence of chimeric LGIC
# B3: CODA535: engineered receptor: L131T, S172D in SEQ ID NO: 33 (protein)
# chain: B1 chain with S131T
# modifications: synthetic sequence of chimeric LGIC
# Tested on: engineered chimeric receptor SEQ ID NO: 33 and its mutants (human α7-nAChR ligand binding domain / human GlyRα1 ion pore domain) in Lenti-X 293T cells
# Assay: YFP fluorescence quenching anion reporter plate reader assay (percent quench, EC50)
# Format: cell-based
# Conditions: for YFP fluorescence quenching using CNL001 (percent quench): receptor named in row; for YFP fluorescence quenching using Facinicline, 30 nM fac: ligand Facinicline 30 nM; for YFP fluorescence quenching using Facinicline, 300 nM fac: ligand Facinicline 300 nM; for YFP fluorescence quenching using Facinicline, 10 uM fac: ligand Facinicline 10 uM; for YFP fluorescence quenching using Facinicline, 30 uM fac: ligand Facinicline 30 uM; for YFP fluorescence quenching using TC-6987, 1 uM tc6987: ligand TC-6987 1 uM; for YFP fluorescence quenching using TC-6987, 10 uM tc6987: ligand TC-6987 10 uM; for YFP fluorescence quenching using TC-6987, 500 uM tc6987: ligand TC-6987 500 uM
# Outline: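 Percent quench compares mean YFP signal over the final 10 s with the 15 s baseline before ligand, added in iodide-containing extracellular solution (pH 7.2). Cells were LX293T carrying a YFP anion reporter, transiently transfected with the channel construct; plates were preincubated 30 min at 37 °C.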
# [1] = 1 nM CNL001, first column so headed
# [2] = 1 nM CNL001, second column so headed
# [3] = 1 nM brd (TC-5619/Bradanicline)
# [4] = 3 nM brd (TC-5619/Bradanicline)
# [5] = 10 nM CNL001, first column so headed
# [6] = 10 nM CNL001, second column so headed
# [7] = 10 nM brd (TC-5619/Bradanicline)
# [8] = 50 nM CNL001, first column so headed
# [9] = 50 nM CNL001, second column so headed
# [10] = 100 nM CNL001, first column so headed
# [11] = 100 nM CNL001, second column so headed
# [12] = 100 nM brd (TC-5619/Bradanicline)
# [13] = 1 uM CNL001, first column so headed
# [14] = 1 uM CNL001, second column so headed
# [15] = 1 uM brd (TC-5619/Bradanicline)
molecule,measurement,setting,value
B1,YFP fluorescence quenching using CNL001 (percent quench),[1],23.438%
same,YFP fluorescence quenching using CNL001 (percent quench),[2],28.59%
same,YFP fluorescence quenching using TC-5619/Bradanicline (percent quench),[3],−1.13%
same,YFP fluorescence quenching using TC-5619/Bradanicline (percent quench),[4],−3.83%
same,YFP fluorescence quenching using CNL001 (percent quench),[5],56.882%
same,YFP fluorescence quenching using CNL001 (percent quench),[6],56.777%
same,YFP fluorescence quenching using TC-5619/Bradanicline (percent quench),[7],−3.78%
same,YFP fluorescence quenching using TC-6683 (percent quench),30 nM TC-6683,−22.464%
same,YFP fluorescence quenching using CNL001 (percent quench),[8],65.044%
same,YFP fluorescence quenching using CNL001 (percent quench),[9],67.373%
same,YFP fluorescence quenching using ABT-126 (percent quench),50 nM abt (ABT-126),−11.96%
same,YFP fluorescence quenching using CNL001 (percent quench),[10],68.666%
same,YFP fluorescence quenching using CNL001 (percent quench),[11],70.357%
same,YFP fluorescence quenching (percent quench),100 nM CNL002,14.26%
same,YFP fluorescence quenching using ABT-126 (percent quench),100 nM abt (ABT-126),−10.72%
same,YFP fluorescence quenching using AZD-0328 (percent quench),100 nM azd0328,−9.32%
same,YFP fluorescence quenching using TC-5619/Bradanicline (percent quench),[12],−2.03%
same,YFP fluorescence quenching using TC-6683 (percent quench),300 nM TC-6683,−23.976%
same,YFP fluorescence quenching using ABT-126 (percent quench),300 nM abt (ABT-126),11.65%
same,YFP fluorescence quenching using AZD-0328 (percent quench),300 nM azd0328,4.94%
same,YFP fluorescence quenching using CNL001 (percent quench),[13],73.019%
same,YFP fluorescence quenching using CNL001 (percent quench),[14],73.527%
same,YFP fluorescence quenching (percent quench),1 uM CNL002,45.55%
same,YFP fluorescence quenching using ABT-126 (percent quench),1 uM abt (ABT-126),−3.06%
same,YFP fluorescence quenching using TC-5619/Bradanicline (percent quench),[15],1.68%
same,YFP fluorescence quenching using TC-6683 (percent quench),3 uM TC-6683,−24.897%
same,YFP fluorescence quenching (percent quench),10 uM ach (acetylcholine),−11.3%
same,YFP fluorescence quenching (percent quench),30 uM CNL002,64.93%
same,YFP fluorescence quenching using TC-6683 (percent quench),30 uM TC-6683,−20.474%
same,YFP fluorescence quenching using AZD-0328 (percent quench),30 uM azd0328,60.61%
same,YFP fluorescence quenching using TC-6683 (percent quench),100 uM TC-6683,−22.253%
same,YFP fluorescence quenching (percent quench),100 uM ach (acetylcholine),−27.53%
same,YFP fluorescence quenching (percent quench),1 mM ach (acetylcholine),2.84%
same,YFP fluorescence quenching (percent quench),3 mM ach (acetylcholine),14.65%
same,"YFP fluorescence quenching using Facinicline, 30 nM fac",,−23.44
same,"YFP fluorescence quenching using Facinicline, 300 nM fac",,2.75
same,"YFP fluorescence quenching using Facinicline, 10 uM fac",,69.71
same,"YFP fluorescence quenching using Facinicline, 30 uM fac",,61.44
same,"YFP fluorescence quenching using TC-6987, 1 uM tc6987",,−20.99
same,"YFP fluorescence quenching using TC-6987, 10 uM tc6987",,−27.62
same,"YFP fluorescence quenching using TC-6987, 500 uM tc6987",,−24.22
B2,YFP fluorescence quenching using CNL001 (percent quench),[1],−10.729%
same,YFP fluorescence quenching using CNL001 (percent quench),[2],−15.278%
same,YFP fluorescence quenching using TC-5619/Bradanicline (percent quench),[3],−9.78%
same,YFP fluorescence quenching using TC-5619/Bradanicline (percent quench),[4],−12.06%
same,YFP fluorescence quenching using CNL001 (percent quench),[5],−20.403%
same,YFP fluorescence quenching using CNL001 (percent quench),[6],−14.905%
same,YFP fluorescence quenching using TC-5619/Bradanicline (percent quench),[7],−9.02%
same,YFP fluorescence quenching using TC-5619/Bradanicline (percent quench),30 nM brd (TC-5619/Bradanicline),−16.3%
same,YFP fluorescence quenching using CNL001 (percent quench),[8],−14.303%
same,YFP fluorescence quenching using CNL001 (percent quench),[9],−15.741%
same,YFP fluorescence quenching using ABT-126 (percent quench),50 nM abt (ABT-126),−11.83%
same,YFP fluorescence quenching using CNL001 (percent quench),[10],−12.637%
same,YFP fluorescence quenching using CNL001 (percent quench),[11],−10.606%
same,YFP fluorescence quenching (percent quench),100 nM CNL002,−18.17%
same,YFP fluorescence quenching using ABT-126 (percent quench),100 nM abt (ABT-126),−11.5%
same,YFP fluorescence quenching using AZD-0328 (percent quench),100 nM azd0328,−0.71%
same,YFP fluorescence quenching using TC-5619/Bradanicline (percent quench),[12],−7.44%
same,YFP fluorescence quenching using ABT-126 (percent quench),300 nM abt (ABT-126),−8.01%
same,YFP fluorescence quenching using AZD-0328 (percent quench),300 nM azd0328,−1.73%
same,YFP fluorescence quenching using TC-5619/Bradanicline (percent quench),300 nM brd (TC-5619/Bradanicline),−10.93%
same,YFP fluorescence quenching using CNL001 (percent quench),[13],−13.535%
same,YFP fluorescence quenching using CNL001 (percent quench),[14],−11.335%
same,YFP fluorescence quenching (percent quench),1 uM CNL002,−15.2%
same,YFP fluorescence quenching using ABT-126 (percent quench),1 uM abt (ABT-126),−9.34%
same,YFP fluorescence quenching using TC-5619/Bradanicline (percent quench),[15],−4.55%
same,YFP fluorescence quenching (percent quench),10 uM ach (acetylcholine),−0.46%
same,YFP fluorescence quenching (percent quench),30 uM CNL002,−14%
same,YFP fluorescence quenching using AZD-0328 (percent quench),30 uM azd0328,47.39%
same,YFP fluorescence quenching (percent quench),100 uM ach (acetylcholine),−4.93%
same,YFP fluorescence quenching (percent quench),1 mM ach (acetylcholine),−11.18%
same,YFP fluorescence quenching (percent quench),3 mM ach (acetylcholine),−3.53%
same,"YFP fluorescence quenching using Facinicline, 30 nM fac",,38.08
same,"YFP fluorescence quenching using Facinicline, 100 nM fac",ligand Facinicline 100 nM,−14.37
same,"YFP fluorescence quenching using Facinicline, 300 nM fac",,19.41
same,"YFP fluorescence quenching using Facinicline, 10 uM fac",,67.33
same,"YFP fluorescence quenching using Facinicline, 30 uM fac",,79.67
same,"YFP fluorescence quenching using TC-6987, 1 uM tc6987",,31.9
same,"YFP fluorescence quenching using TC-6987, 10 uM tc6987",,25.54
same,"YFP fluorescence quenching using TC-6987, 500 uM tc6987",,21.13
B3,YFP fluorescence quenching using CNL001 (percent quench),[1],8.736%
same,YFP fluorescence quenching using CNL001 (percent quench),[2],24.572%
same,YFP fluorescence quenching using CNL001 (percent quench),[5],60.552%
same,YFP fluorescence quenching using CNL001 (percent quench),[6],63.09%
same,YFP fluorescence quenching using TC-6683 (percent quench),30 nM TC-6683,−29.362%
same,YFP fluorescence quenching using CNL001 (percent quench),[8],73.242%
same,YFP fluorescence quenching using CNL001 (percent quench),[9],73.889%
same,YFP fluorescence quenching using ABT-126 (percent quench),50 nM abt (ABT-126),−11.09%
same,YFP fluorescence quenching using CNL001 (percent quench),[10],76.147%
same,YFP fluorescence quenching using CNL001 (percent quench),[11],76.21%
same,YFP fluorescence quenching (percent quench),100 nM CNL002,1.23%
same,YFP fluorescence quenching using ABT-126 (percent quench),100 nM abt (ABT-126),−10.37%
same,YFP fluorescence quenching using AZD-0328 (percent quench),100 nM azd0328,−7.02%
same,YFP fluorescence quenching using TC-6683 (percent quench),300 nM TC-6683,−28.954%
same,YFP fluorescence quenching using ABT-126 (percent quench),300 nM abt (ABT-126),−4%
same,YFP fluorescence quenching using AZD-0328 (percent quench),300 nM azd0328,−0.48%
same,YFP fluorescence quenching using CNL001 (percent quench),[13],78.988%
same,YFP fluorescence quenching using CNL001 (percent quench),[14],78.818%
same,YFP fluorescence quenching (percent quench),1 uM CNL002,35.77%
same,YFP fluorescence quenching using ABT-126 (percent quench),1 uM abt (ABT-126),4.05%
same,YFP fluorescence quenching using TC-6683 (percent quench),3 uM TC-6683,−23.708%
same,YFP fluorescence quenching (percent quench),10 uM ach (acetylcholine),−12.24%
same,YFP fluorescence quenching (percent quench),30 uM CNL002,68.29%
same,YFP fluorescence quenching using TC-6683 (percent quench),30 uM TC-6683,−23.431%
same,YFP fluorescence quenching using AZD-0328 (percent quench),30 uM azd0328,70.16%
same,YFP fluorescence quenching using TC-6683 (percent quench),100 uM TC-6683,−18.324%
same,YFP fluorescence quenching (percent quench),100 uM ach (acetylcholine),−26.23%
same,YFP fluorescence quenching (percent quench),1 mM ach (acetylcholine),−1.16%
same,YFP fluorescence quenching (percent quench),3 mM ach (acetylcholine),2.97%
same,"YFP fluorescence quenching using Facinicline, 30 nM fac",,−21.36
same,"YFP fluorescence quenching using Facinicline, 300 nM fac",,4.17
same,"YFP fluorescence quenching using Facinicline, 30 uM fac",,65.94
same,"YFP fluorescence quenching using TC-6987, 1 uM tc6987",,−21.8
same,"YFP fluorescence quenching using TC-6987, 10 uM tc6987",,−27.08
same,"YFP fluorescence quenching using TC-6987, 500 uM tc6987",,−21.56
